Assay [1] concerns the target IGF-I S1A on phage (G1S-A70V template) (human; bacteriophage M13). In words: competitive phage ELISA. From the text: (§1) Phage particles were harvested and resuspended in PBS buffer as described in Lowman, H. B., “Phage Display of Peptide Libraries on Protein Scaffolds,” in Cabilly, S. (ed.), Combinatorial Peptide Library Protocols (Humana Press Inc.: Totowa, N.J., 1998), pp. 249-264. Then phage concentrations were normalized to yield a maximal ELISA signal of 0.2-0.4 for each mutant (Lowman, in Cabilly, S. (ed.), supra). […] After blocking, the plates containing immobilized target were washed with 0.05% TWEEN™/PBS buffer and subsequently incubated with 80 μl/well of the premixed phage-competitor solutions for 1 hour at room temperature. After washing, bound phage was detected with 80 μl/well of a solution containing a primary rabbit anti-phage polyclonal antibody and a secondary goat anti-rabbit monoclonal antibody-horseradish peroxidase conjugate in 0.5% TWEEN 20™/PBS. o-Phenylenediamine (Sigma) and tetramethylbenzidine (Kirkegaard and Perry) were used as chromogenic substrates, resulting in product detection at 492 and 450 nm, respectively. IC₅₀ values were determined by fitting the binding data to a generic saturation curve (Lowman, in Cabilly, S. (ed.), supra).
(§2) At least two different clones of every mutant were tested.

Assay [2] concerns the target T1, IGF-I P2A on phage (G1S-A70V template) (human; bacteriophage M13).
T1 construct: not shown: M13 gene III fragment (residues 249-406), the display carrier, and its junction to IGF-I
In words: competitive phage ELISA.
Source text: as §1, §2
Background: ELISA stands for enzyme-linked immunosorbent assay.

Assay [3] deals with T2, IGF-I F49A on phage (G1S-A70V template) (human; bacteriophage M13).
T2 chain: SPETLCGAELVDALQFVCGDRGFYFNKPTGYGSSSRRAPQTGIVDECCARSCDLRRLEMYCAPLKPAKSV
The experiment in a line: competitive phage ELISA. The conditions noted are these: remark: other sources report otherwise.

The target in assay [4] is T2, IGF-I F49A on phage (G1S-A70V template) …. In words: competitive phage ELISA; ratio against IGFBP-3. The following applies: remark: other sources report otherwise.

One may read the IC50 as the midpoint of a concentration-inhibition curve. Low readings indicate higher potency, high ones lower potency.

B1: human IGFBP-1 (other, UniProt P08833 26-259, looked up)
chain: APWQCAPCSAEKLALCPPVSASCSEVTRSAGCGCCPMCALPLGAACGVATARCARGLSCRALPGEQQPLHALTRGQGACVQESDASAPHAAEAGSPESPESTEITEEELLDNFHLMAPSEEDHSILWDAISTYDGSKALHVTNIKKWKEPCRIELYRVVESLAKAQETSGEEISKFYLPNCNKNGFYHSRQCETSMDGEAGLCWCVYPWNGKRIPGSPEIRGDPNCQIYFNVQN
notes: Recombinant secreted protein
For the molecule B1, the IC50 in assay [1] turned out to be 5.2 nM; in assay [2], 11 nM. Further, the relative IC50 (IC50 mut/IC50 G1S-A70V) in assay [3] is more than 100. In addition, the relative specificity (relative IC50 IGFBP-1/relative IC50 IGFBP-3) in assay [4] was more than 28.

The record behind these values is US20040023883A1 (published 2004).
